# Assay: label from the status in PepcDB records
# 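Also: failed if final PepcDB status was selected cloned or expressed and not failed if soluble or beyond.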
row,Sequence,protein production
1,MQGWLVIPVSLAYLGVLFLIAWYGDRQTRWLANWRPWIYSLSIAVYCTSWTFYGTVGQASVNPWSFLPIYIAPILMFVFGWRVLARLILIAKREHITSLADFIAARYGKSQGLAVAVTVIAVLGILPYIALQLRGITMGLNIVAPDLMTVYGYQESHVSWFVVLALALFTMLFGTRHIDNTEHHRGMMMAIAFESIVKLVAFLCVGVFIAYLAWRTDGLELSTIAASTYQAPNWPTLLIHTLLTMIAIVCLPRQFHTMVVENERPQDLHTARWLFPVYLLLMSLFVLPIAWTGQGLLPNTSPDTFVISLPVFAGAHDIALLAFLGGTSAASGMVIVSTIALAIMVSNDLVMPLLLRRMRLSQRTHRHFSGLLVVIRRTLILLLLFGAWGFYLVLDSIPSLSAIGFLSFSAITQFAPAIFGGMYWREGNRKGVYVGLAVGFTLWLITLMSATDMLAGDASNNVLLWVITPPDWLVALGLKSADWGMLLSVTLNTLCYIGVSLVTRASLSERLQAAAFVGTPLPENENMSLYQSRVTVGELEMLASRFVGRTRVRNAFAQYWSQQRETLLPNQQASSALIRHTERVLAGVFGASSAKLVLTSALQGRKMQLEEVATIVDEASELYDFSRGLLQGAIEHIGQGIAVVDKQLRLVAWNQRYLELFEFPPGLIQVGRPIADVIRHNAQQGLCGPGDPEDHVRRRVYHLEQGTSHTSSRVRADGRVIEVQGNPMPGGGFVMSFTDITVFREAEQSLKMANETLEERVLQRTLELEKLNKQLVTATQRSERESQSKSRFLAAVSHDLMQPLNAARLFASSLSEVAKEAEVQKLAHHIESALGAAEDLISDLLDISRLESGKIDLHPHSFAIMDVLSNLNAEFSALAAKQGVQFSLVPSLLWVHSDPKLLRRVIQNFLTNAFRYNPNGKVILGVRRVATGQVRIDVWDNGIGIEQDKQQEIFEEFNRGGQVRSDQGLGLGLAISKGIAHVLGHHISMRSWPGQGSVFSITLDRAQPMPSSLTQTVAMVNEKGSELQHLRVLCVDNEPDILVGMRDLLERWGCEVKTATDIHGSLKALEGQWIPDVILSDYRLDNGRTGLEVLQQCRLRLGDCFAGVIISADRNPDILDGIESSGFRFMAKPIKPLKLRALLNSLS,failed
2,MPYLPEVIIILVLIALNGIFAMSEFALVSAKKIRLRQKAEKGDAGAETALKLSNEPTAFLSTVQIGITLVGIFAGAFGGATIAGELDTYLRDFPALARYSATLSITLVVLIITYLTLILGELVPKQLALNNAETIASRVAKPMFFLSLMARPLVLVLSYSTDAVLRLLRVRKIIGPPVTEEEIKIMIEEGTEAGVFERAEMSMIEGVFDIGDRRVESLMTHRSDIIALDLDDPVDENLKKMIASGRSNFPVYERDLDDVIGIVSVKDVLAKLVESGKVDIRASVTKPLFAPEAITILKLLESFKETGMHIALITDEYGSVQGIITLHDILEAIVGDVRSLGEPEEEQITVLENGSWLIDGDTPVNKLKYVLSVDSFPGEEQGYYLTIAGLIMYILQRIPKTGDHMEFNGLRYEVVDMDGIRIDKVMVTKVPEISKD,not failed
3,MKILVCITHVPDTTSKITFADNKFNTAGVQFIIGPYDEYALSRAVELKEQSGGTVTVLNVGDAETEPTIRKALAIGADDAIRINAVPKDAGFVAAQIAAVAKSGGYDLILMGRESIDYNGGLVHGLVADALGMPCVTPIMKLDIENGVAKMTREIEGGKESVECALPFVAGCQEPIAEWKIPNMRGIMSARTKPLNVVEPVVVADDVVYGTFSLPAPKGACKMIDAANPEELLTLLRNEAKVL,failed
4,MDIVSVALQRYSTKAFDPSKKLTAEEADKIKTLLQYSPSSTNSQPWHFIVASTEEGKARVAKSAAGNYTFNERKMLDASHVVVFCAKTAMDDAWLERVVDQEDADGRFATPEAKAANDKGRRFFADMHRVSLKDDHQWMAKQVYLNVGNFLLGVAAMGLDAVPIEGFDAEVLDAEFGLKEKGYTSLVVVPVGHHSVEDFNAGLPKSRLPLETTLTEV,not failed
5,YTDESGLSELVNAAGEKLQDLELMGQKNAVRDFFKELIADSGKVAYGESQVRANLEINSVDVLLLSEDLRAERVTTKCSVCGYENKWTRRWKPGEPAPAAGNCPKCGSSLEVTDVTDIVDEFSELADKSNAKVVFVSTDFDEGSQLMNAFGGIAAILRYNTGV,not failed
6,MELSAIGEQVFAVESIRKKRVRKGKVEYLVKWKGWPPKYSTWEPEEHILDPRLVMAYEEKEERDRASGYRKRGPKPKRLLLQRLYSMDLRSSHKAKGKEKLCFSLTCPLGSGSPEGVVKAGAPELVDKGPLVPTLPFPLRKPRKAHKYLRLSRKKFPPRGPNLESHSHRRELFLQEPPAPDVLQAAGEWEPAAQPPEEEADADLAEGPPPWTPALPSSEVTVTDITANSITVTFREAQAAEGFFRDRSGKF,failed
7,PIDLITVGSLIELQDSQNPFQYWIVSVIENVGGRLRLRYVGLEDTESYDQWLFYLDYRLRPVGWCQENKYRMDPPSEIYPLKMASEWKCTLEKSLIDAAKFPLPMEVFKDHADL,not failed
8,GKKIKYDTPLSTLVIAPPGTGKTSAIIIPNLLSIPNSQVVIDVKGEICSLTAGYRQKKLLNQVFIFNPFGEDSNFHFNPFNLERMSKLGFAEKTAIVRQVGSTIFPKPKDEKDSHWRETAKTFFEFAAMHNIEKYGYTTLYEIYRFPKKDWTDELEDKYFDEKEKREELGEEVNTFRLLLRQIAENETLHDNIRDDARRFLGTPANEFGSVLSTFSTKMSIFGDLRVKELTDQNSFMPERLREDNITLYIKCLEKDIPSLSPIIRILLETIVKELMSRESTDPKERIYLELDEVMRFGELDFMIELPSISRSYNLPNIFAAQSYAQIRKHYSQEDLEIMLDTVAYQVVFRANRQQAAEDISKEVGDFTAHKKTTSSQDIKILQSYSTSEEAKRLVTAQDILNIPKDKVLILATGHKATPILAQANFYFKDRTERQKTKIKKE,failed
9,MKEIKEITKKDVQDAEIYLYGSVVEGDYSIGLSDIDVAIVSDVFEDRNRKLEFFGKITKKFFDSPFEFHILTKKEWKMSKRFIRKYRRLDLIT,not failed
10,MIKSTNIQAIGSGIMHQINNVYSLTPLSLPMELTPSCNEFYLKTWSEWEKNGTPGEQRNIAFNRLKICLQNQEAELNLSELDLKTLPDLPPQITTLEIRKNLLTHLPDLPPMLKVIHAQFNQLESLPALPETLEELNAGDNKIKELPFLPENLTHLRVHNNRLHILPLLPPELKLLVVSGNRLDSIPPFPDKLEGLALANNFIEQLPELPFSMNRAVLMNNNLTTLPESVLRLAQNAFVNVAGNPLSGHT,failed
11,MDSRLAMFAPCPRGLEQILADELLALGAGDIAPADGGVAFAGDARLMMAVNLHSRTASRVLLRLAHGGYHAEQDIYRLAMSVDWPRWFEVSRTIKLKADGIAARVKSLDYIGLTVKDAICDRFRQAHLGRPSVDTRHPDVRVNVFLTADEATIYLDTSGEPLFKRGWREETGEAPLRENLAAGILLLAGYDGSQPLLDPMCGSGTFLVEAADIALNRAPGRARRFGFEALSSFDSAAWEKLQQDARKAEQPASSLAIRGSDRSQAMVNIARANLERAGLAELVEVSAADVTASRPHAEHGLIVSNPPYGVRLEEQDQLAAWYPELGDWLKAHFAGWTACLFSGDLRLGKLIRLAPKRRTPLFNGSLQCRLFVINMVEGSARKQKDGDEAEIETGDEQ,failed
12,MPDNEVDLLFAQLSPEDLIEWSDYLPESFTDRALAQMGERQRQRFELYDQYSENEIGRYTDHQMLVLSDKATVAQAQRFFRRIELDCNDNLFIVDEADKYLGTVRRYDIFKHEPHEPLISLLSEDSRALTANTTLLDAAEAIEHSREIELPVIDDAGELIGRVTLRAATALVREHYEAQLMATAGMDESDDLFAPILKGAQRRAV,not failed
13,LTTEGGKALVDFAVKRNLQYIHFDAGWYGFEYDKVSDATTVTLDPRRNPDINALNLKEVVAYAKERGIGVILYVNQRALQQQLDEILPLYKSWGIAGIKFGFVQVGSQVWTKWMHEAIKKCADYGLMVDVHDEYRPTGFSRTYPNLM,failed
14,MNIEQQLYDVVKQLIEQRYPNDWGGAAAIRVEDGTIYTSVAPDVINASTELCMETGAILEAHKFQKKVTHSICLARENEHSELKVLSPCGVCQERLFYWGPEVQCAITNAKQDIIFKPLKELQPYHWTEAYHDEMVKEWSTR,not failed
15,MTFPLALIAKNTPANSMIMTKLPSVKVKTEGYNPSVNVNELFAYVDLSGSEPGEHDYEVKVDPIPNIKIVEISPRVVTLQLEHHHHHH,not failed

# Reference: a protein production outcome set (Wang et al. 2014)
